In patent publication EP0531080A2, “Peptide inhibitors of human papilloma virus protein binding to retinoblastoma gene protein” (MERCK & CO. INC., priority 1991, dated 1993):
Where a SMILES comes first, the peptide text is derived from it. Where no end group is shown, it is not given here. [ ]: non-standard residue; d: D form. NMeY = CN[C@@H](Cc1ccc(O)cc1)C(=O)O; NMeL = CN[C@@H](CC(C)C)C(=O)O

Tests used:
[1] = target: T1, HPV-16 E7 protein binding to the RBG protein (Homo sapiens, UniProt P06400); test: HPV-16 E7 protein binding assay described by R.E. Jones et al.; settings: lowest concentration stated to inhibit
T1 sequence (P06400 1-928): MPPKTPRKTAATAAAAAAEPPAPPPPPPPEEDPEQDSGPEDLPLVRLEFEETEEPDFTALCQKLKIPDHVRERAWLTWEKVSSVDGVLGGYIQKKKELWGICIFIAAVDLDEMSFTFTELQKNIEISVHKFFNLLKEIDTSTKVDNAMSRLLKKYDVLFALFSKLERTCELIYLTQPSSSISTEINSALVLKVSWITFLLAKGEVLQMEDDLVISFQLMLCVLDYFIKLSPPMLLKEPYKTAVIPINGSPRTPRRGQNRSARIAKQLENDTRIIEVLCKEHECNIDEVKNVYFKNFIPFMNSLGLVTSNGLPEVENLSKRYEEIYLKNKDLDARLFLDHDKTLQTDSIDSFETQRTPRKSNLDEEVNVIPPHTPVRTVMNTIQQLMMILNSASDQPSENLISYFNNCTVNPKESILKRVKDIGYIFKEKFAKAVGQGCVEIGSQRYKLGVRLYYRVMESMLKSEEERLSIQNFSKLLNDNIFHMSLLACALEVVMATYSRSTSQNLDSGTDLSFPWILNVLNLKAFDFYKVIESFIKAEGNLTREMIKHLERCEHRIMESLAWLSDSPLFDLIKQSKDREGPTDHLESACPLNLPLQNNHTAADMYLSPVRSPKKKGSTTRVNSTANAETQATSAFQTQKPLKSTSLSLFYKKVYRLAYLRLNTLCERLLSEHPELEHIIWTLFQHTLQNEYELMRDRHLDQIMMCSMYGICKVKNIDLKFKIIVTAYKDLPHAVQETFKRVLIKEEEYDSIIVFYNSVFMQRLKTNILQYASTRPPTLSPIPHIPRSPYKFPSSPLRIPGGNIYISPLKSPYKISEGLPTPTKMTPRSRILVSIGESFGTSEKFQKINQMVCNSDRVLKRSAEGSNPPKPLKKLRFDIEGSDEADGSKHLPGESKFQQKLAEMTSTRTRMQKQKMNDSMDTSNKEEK
Description: Peptides D and E were examined in the HPV-16 E7 protein binding assay described by R.E. Jones et al., The Journal of Biological Chemistry, Vol 265:12782-12785, 1990. This assay measures the binding of the E7 protein to the RBG protein. Peptides D and E inhibited HPV-16 E7 protein binding to the RBG protein at concentrations of Peptide D as low as 20nM and at concentrations of Peptide E as low as 2nM. […] Additionally, Peptide D and Peptide E are themselves antagonists of the HPV E7 protein binding to the RBG protein.

[2] = target: T1, HPV-16 E7 protein binding to the RBG protein; test: Binding inhibition assay by immune precipitation (Example 2; Hela cell lysate plus radiolabeled E7 from rabbit reticulocyte lysate); set-up: Whole cell lysates of Hela cells were used as a source of human RBG protein; endogenous in cells; host or cells: HeLa whole cell lysate (RB); rabbit reticulocyte lysate, T7 promoter clone (E7)
Description: Peptide A, Peptide B, and Acetyl-GRP 20-27 were assayed for their abilities to inhibit the binding of the HPV-16 E7 protein to the RBG protein. Binding inhibition assays were carried out in vitro using a modification of the procedure described by N. Dyson et al., Science 243: 934-936 1989. Whole cell lysates of Hela cells were used as a source of human RBG protein. Rabbit reticulocyte cell free lysates that permit transcription and translation of exogenously added DNAs served as a source of HPV-16 E7 protein. The HPV-16 E7 gene was added to the rabbit reticulocyte lysate as a recombinant DNA clone under the control of a T7 promoter and incubated for 60 minutes at 30°C in the presence of radiolabeled methionine to allow transcription of the HPV-16 E7 gene and translation into E7 protein that contained radiolabeled methionine. The Hela cell and rabbit reticulocyte lysates were then mixed and incubated at 4°C for 90 minutes. After further manipulations a murine antibody against the RBG protein was added and incubated at 4°C for 60 minutes. Next, a rabbit anti-mouse IgG antibody and protein A sepharose was added to the reaction mixture in order to immune precipitate the RBG protein. At the same time, the E7 protein that was bound to the RBG protein was also precipitated. […] This biochemical protocol yields a quantitative estimate of the binding of HPV-16 E7 protein to the RBG protein in vitro. […]

RBG Protein/E7 = target: T2, RBG Protein/E7 (Homo sapiens, UniProt P06400); test: E7/RB plate binding assay (recombinant E7 on plate, 35S-labeled RBG protein); settings: average of at least two experiments, triplicate; read-out: PLATE ASSAY RBG Protein/E7 IC₅₀
T2 construct: made in house; host or cells: rabbit reticulocyte lysate (in vitro translation of RB)
T2 sequence (P06400 1-928): T1 sequence (P06400 1-928)
Description: (§1) An in vitro solution assay used for the detection of complex formation between E7 protein and p105-RB has been described by Dyson, et. al. (30). Cell lysates used as source of RBG protein were prepared from human T24 bladder carcinoma cells as described (30). C36 and the control antibody Pb416 are monoclonal antibodies directed against RGB protein and SV40 large T protein, respectively. These antibodies were a generous gift from E. Harlow (Cold Spring Harbor Laboratories, Cold Spring Harbor, NY). Immunoprecipitates of E7/RGB protein binding reactions containing serially diluted peptide antagonists were dissolved in 35 µl gel loasing buffer (30). Five µl was counted directly in Right Safe (Beckan, Palo Alto, CA.) scintillation cocktail and 25 µl was subjected to sodium dodecyl sulphate poly-acrylamide gel electrophoresis. Gels were dried and exposed to Kodak X-AR film at -70°C overnight. In order to more rapidly assay large numbers of samples and more easily quantitate the binding results, we developed a plate binding asszy for the detection of E7/RGB protein association. Purified recombinant E7 was resuspended in 0.1 M sodium carbonate, pH 9.5, at 1 ng/µl. Fifty microliters of this solution was placed inot each well of a polyvinyl chloride micortiter plate (COSTAR 2596, Cambridge, MA.). The plate was gently agitated for 18 hours at 4°C. The E7 solution was aspirated off and 100 µl of plate blocking buffer (PBB) [50mM Hepes 7.0, 250mM sodium chloride, 0.1% NP40, 0.5% (w/v) pigskin gelatin, and 0.02% sodium azide] was added pwe well. The buffer was removed and the plate was washed three times in the above buffer without the gelatin (PB). five femtomoles of ³⁵S-methionine (Amersham 100 Ci/mmole, Arlington Heights, IL.) labeled RBG protein prepared in a rabbit reticulocyte lysate was diluted in PB buffer containing various peptide antagonists to a final volume of 50 µl and added to the E7 treated plate. The plate was agsin incubated at 4°C with agitation for 1 hour after which the solution was aspirated and each well washed five times with PB. The top of the plate was removed using a hot wire cutting apparatus (D. Lee, Sunnyvale, CA). Each well eas placed in 3 ml of Ready Safe scintillation cocktail (Beckman, Palo Alto, CA.) and counted for one minute. • 30. Dyson, N. Duffy, L.A., and Harlow, E. (1989) Cancer Cells 7, 235-240 • 31. Merrifield, R.B. (1963) J. Am. Chem. Soc. 85, 2149-2154 • 32. Sakakibara, S., Shimonishi, Y., Kishida, Y., Okada, M., and Sugihara, H. (1967) Bull. Chem. Soc. Japan 40, 2164-2167 • 33. Rivier, J., McClentock, R., and Anderson, H. (1984) J. Chromatogr. 288, 303-328
(§2) IC ₅₀ values represent the average of at least two experiments in which each concentration of inhibitor was tested in triplicate. The varition between experiments was less than 10%. The 50% inhibition concentration are micromolar. ND = not determined. [formula] [formula] [formula] [formula]

[3] = target: T3, RBG Protein/E7 (complex formation between E7 protein and p105-RB) (Homo sapiens, UniProt P06400); test: E7/RB solution assay (immunoprecipitation, T24 cell lysates as source of RBG protein); assay type: binding; settings: average of at least two experiments, triplicate; read-out: SOLUTION ASSAY RBG Protein/E7 IC₅₀
T3 construct: Cell lysates used as source of RBG protein were prepared from human T24 bladder carcinoma cells; endogenous in cells; host or cells: human T24 bladder carcinoma cells (whole cell lysate)
T3 sequence (P06400 1-928): T1 sequence (P06400 1-928)
Description: as §1, §2

Molecule	IC50 (RBG Protein/E7) [µM]	IC50 [3] [µM]	also measured
CC(=O)N[C@@H](CC(=O)O)C(=O)N(C)[C@@H](CC(C)C)C(=O)N[C@@H](Cc1ccc(O)cc1)C(=O)N[C@@H](CS)C(=O)N(C)[C@@H](Cc1ccc(O)cc1)C(=O)N[C@@H](CCC(=O)O)C(=O)N[C@@H](CCC(N)=O)C(=O)N(C)[C@@H](CC(C)C)C(=O)N[C@@H](CC(N)=O)C(N)=O [Peptide E] (Ac-D[NMeL]YC[NMeY]EQ[NMeL]N-NH2)			inhibited HPV-16 E7 protein binding to the RBG protein at concentrations as low as [1]: 2 nM
Ac-DLYCYEQLN-NH2 [Peptide D]			inhibited HPV-16 E7 protein binding to the RBG protein at concentrations as low as [1]: 20 nM
Ac-LYCYEQLNDSS-NH2 [Peptide C]			inhibited HPV-16 E7 protein binding to the RBG protein at concentrations as low as ([2]; lowest concentration stated to inhibit): 1 µM
Acetyl-GRP 20-27: last eight amino acid residues of the human gastrin releasing peptide, unrelated to the HPV E7 protein			effect on HPV-16 E7 protein binding to the RBG protein ([2]; concentrations up to 60 uM): no effect
E7-(14-29)-AMIDE (DLQPETTDLYCYEQLN-NH2; UniProt P03129 14-29, looked up, fragment) [Peptide 7]	0.08		
E7-(18-29)-AMIDE (ETTDLYCYEQLN-NH2; UniProt P03129 18-29, looked up, fragment) [Peptide 8]	0.06	0.4	
E7-(20-32)-AMIDE (TDLYCYEQLNDSS-NH2; UniProt P03129 20-32, looked up, fragment) [Peptide 1]	0.05	1	
E7-(21)32)-AMIDE (DLYCYEQLNDSS-NH2; UniProt P03129 21-32, looked up, fragment) [Peptide 10]	11.4	20	
TDLFCYEQLN-NH2 [Peptide 19, [Phe²³]-E7-(20-29)-AMIDE]	0.06		
[ABU²⁴]-E7-(20-32)-AMIDE [Peptide 17]		20	
[ACM²⁴]-E7-(20-32)-AMIDE [Peptide 18]		> 100	
[G1n27]]-E7-(20-27)-AMIDE (TDLYCYEQ-NH2; UniProt P03129 20-27, looked up, fragment) [Peptide 5]	9.1	50	
[Ser²⁴]-E7-(20-32)-AMIDE (TDLYSYEQLNDSS-NH2; UniProt P03129 20-32, looked up, variant C24S) [Peptide 16]		40	
